We go through 1 molecule from US12441790B2, “Binding proteins to the human thrombin receptor, PAR4” (MONASH UNIVERSITY, priority 2017, dated 2025).

“Also recorded” adds a separate entry of the source.

The subject of test [1] is human isolated platelets. Put plainly: Platelet phosphatidylserine exposure (annexin V binding). In kind it is cell-based. Conditions: pre-treatment 5 min; regardless of donor genotype. The procedure: Platelet surface phosphatidylserine (PS) exposure was determined by measuring annexin V binding. Human isolated platelets (5×10^7/ml) were pre-treated with 5A.RC3 (5 mins) at the concentrations indicated and were incubated with Alexa Fluor 488-conjugated annexin-V (1:100) prior to stimulation with thrombin. After stimulation, platelets were resuspended in modified Tyrode's buffer for flow cytometry analysis (FACSCalibur, BD Biosciences).
Pro-coagulant activity in isolated human platelets was examined by measuring phosphatidylserine (PS) exposure in response to stimulation with PAR4-AP or thrombin (1 U/ml) The percentage of annexin V positive cells was measured. The platelets were pre-incubated with 5A.RC3 for 5 mins. […] The 10 min (final data point) is shown for simplicity.

In test [2] the target is T1, hPAR4 peptide (Homo sapiens, UniProt Q96RI0).
T1 construct: host or cells: synthetic peptide
Put plainly: ELISA of purified mAbs on hPAR4 peptide. The conditions noted are these: dilutions of purified mAbs. In kind it is binding. The procedure:
The kinetics of the binding interaction between the mAbs and hPAR4 was measured using Surface Plasmon Resonance (SPR; Biacore) by two different methods: 1. Anti-mouse Fc mAb capture method and 2. Streptavidin (SA) chip to capture biotinylated peptide. The ka(on) rate and kd(off) rates and KD were measured and fitted to a Langmuir model using the Biacore evaluation software.
The experiment was completed with purified mAbs diluted in PBS instead of hybridoma supernatants.
The reactivity of seven purified anti-hPAR4 mAbs was analysed by ELISA (see Table 4).

The subject of test [3] is human isolated platelets. Put plainly: Binding to human platelets by flow cytometry. The conditions noted are these: 10 μg/ml, against isotype control. How it is done: Human or mouse washed platelets (5×10^7/mL) were incubated with anti-PAR4 antibody (0.1 mg/ml) for 30 mins at 37° C. and then fixed with paraformaldehyde 1% v/v final concentration). The suspension was then centrifuged at 1000×g for 2 min to obtain the platelet pellet, which was then resuspended in modified Tyrode's buffer (12 mM NaHCO3, 10 mM HEPES pH 7.4, 137 mM NaCl, 2.7 mM KCl, 5.5 mM D-glucose, 1 mM CaCl2) containing a 1:50 dilution of an FITC-conjugated […] IgG. After 30 mins at room temperature, the samples were centrifuged again, and the platelet pellet was resuspended in modified Tyrode's buffer an analysed by use of a flow cytometer (FACSCalibur, BD Biosciences).
Clone 5A.RC3 was tested for binding to isolated human platelets in vitro. Analysis of binding was determined using flow cytometry. Isolated platelets were incubated with either mouse IgG1 (isotype control) or 5A.RC3 and tested for binding to PAR4. CD41a which is a marker expressed on platelets was used as a positive control.
(§1) The binding of five anti-PAR4 monoclonal antibodies to human platelets was examined by flow cytometry.

In test [4] the test system is human platelets. Put plainly: Thrombin-induced platelet aggregation assay. In kind it is cell-based. The procedure:
Platelet aggregation was measured by light transmission aggregometry in a 96-well plate format. Human isolated platelets (2×10^8/ml) were pre-treated for 10 mins at 37° C. with dimethylsulfoxide (DMSO) (1% v/v), the PAR1 antagonist vorapaxar (90 nM), the anti-PAR4 antibody 5RC3 (20-100 μg/ml), or a combination of vorapaxar and 5RC3. Platelets were treated with one of thrombin (0.1 U/ml) and aggregation was analysed at 37° C. in a FLUOstar OPTIMA plate reader (BMG Labtech) using a 595 nm excitation filter, for a period of 50 min (10 read cycles with 5 min double orbital shake period between each read). Optical density was normalised against the blank (maximum) and unstimulated platelets (minimum) and expressed as % maximum.
Human isolated platelets of different PAR4 variants were assessed for their responses to PAR4 agonists.
as §1

Test [5] deals with T2, PAR4 (Homo sapiens, UniProt Q96RI0).
T2 construct: host or cells: HEK293 cells transfected with FLAG-PAR4 and/or isolated human platelets
T2 sequence (Q96RI0 18-385): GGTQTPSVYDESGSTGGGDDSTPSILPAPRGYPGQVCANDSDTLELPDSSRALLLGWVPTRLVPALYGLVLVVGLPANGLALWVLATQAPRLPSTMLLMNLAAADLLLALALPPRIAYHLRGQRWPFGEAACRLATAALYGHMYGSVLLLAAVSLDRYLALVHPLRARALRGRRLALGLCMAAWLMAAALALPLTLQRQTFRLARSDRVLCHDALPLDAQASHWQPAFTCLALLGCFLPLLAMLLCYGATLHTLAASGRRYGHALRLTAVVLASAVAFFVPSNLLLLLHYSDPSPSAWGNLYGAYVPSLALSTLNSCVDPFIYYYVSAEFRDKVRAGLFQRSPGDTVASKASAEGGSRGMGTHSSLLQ
Put plainly: Functional bioassays for PAR4 inhibitory function. In kind it is cell-based.

Test [6] deals with human whole blood. In words: Human whole blood thrombosis assay. In kind it is cell-based. The procedure: Human whole blood collected in citrate (3.2%) was pre-incubated for 15 min at 37° C. with PE-conjugated anti-CD9 antibody (4 μg/mL) and an anti-fibrin antibody (5 μg/ml), and one of hirudin (800 U/ml), DMSO (1% v/v), PAR-1 antagonist E5555 (1 μM), anti-PAR4 antibody (0.2 mg/ml) or the combination of both PAR inhibitors. Whole blood was re-calcified with 5-7.5 mM CaCl2 (final concentration) to initiate coagulation, and drawn over glass microslides (1×0.1 mm internal diameter) coated with bovine type 1 collagen (250 μg/ml) at a fixed flow rate of 0.06 ml/min, resulting in a wall shear rate of 600 s^−1. Dual colour confocal fluorescence images were recorded at 488 and 561 nm excitation, collected through a 40× water immersion objective. Confocal z-stacks were continuously recorded for 2 min before modified, calcium-free Tyrode's buffer was flowed over the thrombi and z-stacks encompassing the entire height of the thrombus field were recorded over a period of 10 min. Platelet thrombi were defined using anti-CD9-PE and fibrin volume was quantified using average fluorescence of the thrombus field. Data were normalised against the hirudin baseline and expressed as a percentage of the control.
Thrombosis parameters including platelet deposition, thrombin activity, fibrin volume and ratio of fibrin per thrombus were measured in real-time over a period of 10 minutes in a whole blood thrombosis assay as described herein under conditions of coagulation.
Platelet deposition (PE-conjugated anti-CD9), thrombin activity (FRET-based thrombin probe), fibrin volume (Dylight650-conjugated anti-fibrin antibody) and the ratio of fibrin per thrombus at the 10 minute end-point is shown in FIG. 10A by confocal microscopy (to allow for volume measurements to be taken) using a Nikon Air with a 25× lens and 2× digital magnification.
The volume of human thrombi formed after 3 min was quantified by confocal microscopy in an ex vivo human whole blood thrombosis assay.

The mark [7] stands for this setting: 10 minute endpoint, 5A.RC3 100 μg/ml, hirudin 800 U/ml.

B1: 5A.RC3: anti-PAR4 monoclonal antibody, IgG2a/K, VH SEQ ID NO:11 and VL SEQ ID NO:12 (antibody, V domains shown)
VH: QVQLVESGGGVVQPGRSLRLSCAASGFTLSNYGMHWVRQAPGKGLEWVSVIWYDGSNKHYADSVKGRFTISRDNSKNTLYLQMNSLRAEDTAVYYCARESIVEVLPPFDYWGQGTLVTVSS
VL: KIVLTQSPGTLSLSPGERVTLSCRASQRVRNNYLAWFQQKPGQAPRLFIYGASSRATGIPDRFSGSGSGTDFIFTISRLEPEDFAVYYCQQYGNSYTFGQGTKLEIK
modifications: VH of 5A.RC3; VL of 5A.RC3
For the molecule B1, the “inhibition of thrombin-induced phosphatidylserine exposure” value in test [1] is “dose-dependently inhibited thrombin-induced phosphatidylserine exposure; also recorded: inhibited thrombin-induced phosphatidylserine exposure in a dose dependent manner”. For the same molecule, the “reactivity with hPAR4 peptide by ELISA” value in test [2] is on record as “very similar binding curves”. Further, the “binding to PAR4 on isolated human platelets” value in test [3] is “binds human PAR4 in isolated platelets”. Besides, in test [4] (0.1 U/ml thrombin), the “inhibition of platelet aggregation at the highest concentration tested” value is on record as “Near maximal inhibition”. The “inhibition of thrombin-induced platelet aggregation” value in test [4] (in the presence of a PAR1 antagonist, genotypes TT, AT, AA) is listed as “inhibited in a dose dependent manner”. Also, the “PAR4 inhibitory (antagonist) function” value in test [5] is listed as “demonstrated PAR4 inhibitory function; also recorded: antagonist”. The total thrombus volume entry in test [6] (100 μg/ml, thrombi formed after 3 min) is on record as “reduced total thrombus volume”. Besides, the “ratio of fibrin per thrombus volume” value in test [6] (10 minute endpoint, 5A.RC3 100 μg/ml) is given as “significantly inhibited”. In test [6] (setting [7]), the fibrin volume result was “significantly inhibited”, the platelet deposition entry was “no effect” and the thrombin activity result is “significantly inhibited”.
